{
  "source": "patent US20160263155A1",
  "about": "“T CELL RECEPTORS DIRECTED AGAINST THE PREFERENTIALLY EXPRESSED ANTIGEN OF MELANOMA AND USES THEREOF” (LEIDEN UNIVERSITY MEDICAL CENTER, priority 2015, published 2016)",
  "molecules": {"B1": {"name": "L329K (protein)", "chain": "GFGDVGALESLRGNADLAYILSMEPCGHCLIINNVNFCRESGLRTRTGSNIDCEKLRRRFSSLHFMVEVKGDLTAKKMVLALLELAQQDHGALDCCVVVILSHGCQASHLQFPGAVYGTDGCPVSVEKIVNIFNGTSCPSLGGKPKLFFIQACGGEQKDHGFEVASTSPEDESPGSNPEPDATPFQEGLRTFDQKDAISSLPTPSDIFVSYSTFPGFVSWRDPKSGSWYVETLDDIFEQWAHSEDLQSLLLRVANAVSVKGIYKQMPGCFNFLRKKLFFKTS"}, "B2": {"name": "D330A-Y153F (protein)", "chain": "B1 chain with Y19F, K195L, D196A"}, "B3": {"name": "A331K (protein)", "chain": "B1 chain with K195L, A197K"}, "B4": {"name": "D330A-T317E (protein)", "chain": "B1 chain with T183E, K195L, D196A"}, "B5": {"name": "F404A (protein)", "chain": "B1 chain with K195L, F270A"}, "B6": {"name": "Q328R (protein)", "chain": "B1 chain with Q194R, K195L"}, "B7": {"name": "F404S (protein)", "chain": "B1 chain with K195L, F270S"}, "B8": {"name": "F326K (protein)", "chain": "B1 chain with F192K, K195L"}, "B9": {"name": "D315A-D330A (protein)", "chain": "B1 chain with D181A, K195L, D196A"}, "B10": {"name": "F406L (protein)", "chain": "B1 chain with K195L, F272L"}, "B11": {"name": "D327K (protein)", "chain": "B1 chain with D193K, K195L"}, "B12": {"name": "D327G (protein)", "chain": "B1 chain with D193G, K195L"}, "B13": {"name": "D327R (protein)", "chain": "B1 chain with D193R, K195L"}, "B14": {"name": "D330A-Y153A (protein)", "chain": "B1 chain with Y19A, K195L, D196A"}, "B15": {"name": "Q328K (protein)", "chain": "B1 chain with Q194K, K195L"}, "B16": {"name": "L329G (protein)", "chain": "B1 chain with K195G"}, "B17": {"name": "G402I (protein)", "chain": "B1 chain with K195L, G268I"}, "B18": {"name": "G402Q (protein)", "chain": "B1 chain with K195L, G268Q"}, "B19": {"name": "T317E (protein)", "chain": "B1 chain with T183E, K195L"}, "B20": {"name": "G402A (protein)", "chain": "B1 chain with K195L, G268A"}, "B21": {"name": "D330A-N405T (protein)", "chain": "B1 chain with K195L, D196A, N271T"}, "B22": {"name": "^402GCFNF^406AAAAA: Caspase-9 homodimerization domain mutant (SEQ ID NOS 95 and 99) (protein, UniProt P55211 1-416, looked up, variant G402A C403A F404A N405A F406A)", "chain": "MDEADRRLLRRCRLRLVEELQVDQLWDALLSRELFRPHMIEDIQRAGSGSRRDQARQLIIDLETRGSQALPLFISCLEDTGQDMLASFLRTNRQAAKLSKPTLENLTPVVLRPEIRKPEVLRPETPRPVDIGSGGFGDVGALESLRGNADLAYILSMEPCGHCLIINNVNFCRESGLRTRTGSNIDCEKLRRRFSSLHFMVEVKGDLTAKKMVLALLELAQQDHGALDCCVVVILSHGCQASHLQFPGAVYGTDGCPVSVEKIVNIFNGTSCPSLGGKPKLFFIQACGGEQKDHGFEVASTSPEDESPGSNPEPDATPFQEGLRTFDQLDAISSLPTPSDIFVSYSTFPGFVSWRDPKSGSWYVETLDDIFEQWAHSEDLQSLLLRVANAVSVKGIYKQMPAAAAALRKKLFFKTS"}, "B23": {"name": "^402GCFNF^406QPTFT: Caspase-9 homodimerization domain mutant (SEQ ID NOS 95 and 102) (Casp-8) (protein, UniProt P55211 1-416, looked up, variant G402Q C403P F404T N405F F406T)", "chain": "B22 chain with A402Q, A403P, A404T, A405F, A406T"}, "B24": {"name": "^402GCFNF^406CIVSM: Caspase-9 homodimerization domain mutant (SEQ ID NOS 95 and 101) (Casp-3) (protein, UniProt P55211 1-416, looked up, variant G402C C403I F404V N405S F406M)", "chain": "B22 chain with A402C, A403I, A404V, A405S, A406M"}, "B25": {"name": "^402GCFNF^406YCSTL: Caspase-9 homodimerization domain mutant (SEQ ID NOS 95 and 100) (Casp-2) (protein, UniProt P55211 1-416, looked up, variant G402Y F404S N405T F406L)", "chain": "B22 chain with A402Y, A403C, A404S, A405T, A406L"}},
  "note": "Where a chain is given by its changes, count along the chain named. Names and notes keep the numbering of the source.",
  "data": [
    {"test_system": "chimeric Caspase-9 polypeptide", "sequence (as listed by the source, change not shown)": "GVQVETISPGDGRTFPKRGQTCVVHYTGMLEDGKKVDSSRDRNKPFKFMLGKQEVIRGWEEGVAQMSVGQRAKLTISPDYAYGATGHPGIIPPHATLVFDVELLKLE", "assay": "Caspase mutant classes and basal activity (Table 3)", "format": "cell-based, human", "conditions": "class heading of Table 3", "values": [
      {"molecule": "B1", "Basal Activity": "Increased"},
      {"molecule": "B2", "Basal Activity": "dead"},
      {"molecule": "B3", "Basal Activity": "Increased"},
      {"molecule": "B4", "Basal Activity": "dead"},
      {"molecule": "B5", "Basal Activity": "dead"},
      {"molecule": "B6", "Basal Activity": "Increased"},
      {"molecule": "B7", "Basal Activity": "dead"},
      {"molecule": "B8", "Basal Activity": "Increased"},
      {"molecule": "B9", "Basal Activity": "dead"},
      {"molecule": "B10", "Basal Activity": "dead"},
      {"molecule": "B11", "Basal Activity": "Increased"},
      {"molecule": "B12", "Basal Activity": "Increased"},
      {"molecule": "B13", "Basal Activity": "Increased"},
      {"molecule": "B14", "Basal Activity": "dead"},
      {"molecule": "B15", "Basal Activity": "Increased"},
      {"molecule": "B16", "Basal Activity": "Increased"},
      {"molecule": "B17", "Basal Activity": "dead"},
      {"molecule": "B18", "Basal Activity": "dead"},
      {"molecule": "B19", "Basal Activity": "Increased"},
      {"molecule": "B20", "Basal Activity": "dead"},
      {"molecule": "B21", "Basal Activity": "Increased"},
      {"molecule": "B22", "Basal Activity": "dead"},
      {"molecule": "B23", "Basal Activity": "dead"},
      {"molecule": "B24", "Basal Activity": "dead"},
      {"molecule": "B25", "Basal Activity": "dead"}
    ]}
  ]
}
